From patent publication US10144929B2, “Polypeptide inhibitors of Smad3 polypeptide activities” (Mayo Foundation for Medical Education and Research, priority 2016, dated 2018)
Entries after “also recorded” stand apart in the source; their conditions may differ.

How the values were obtained:
[1] = target: T1, pSmad3 (Mus musculus, UniProt Q8BUN5); assay: His pull down of pSmad3 by TAT-SNX9(SH3) fusion polypeptides; format: binding; settings: lysates of TGFβ treated AKR-2B cultures
T1 construct: endogenous in cells; host or cells: AKR-2B cells
Procedure: (§1) FIGS. 3A-E. Inhibition of Smad3 signaling by a defined region of the SH3 domain in SNX9. (A) Cartoon depicting constructs used for His pull down assays. AKR-2B lysates were incubated with the indicated TAT-SNX9(SH3) fusion polypeptide and immunoblotted for bound pSmad3 or total TAT-SNX9(SH3) fusion polypeptide (His). (B) Nuclear fractions were prepared and assessed as in FIG. 1B following transduction with the indicated TAT-SNX9(SH3) fusion polypeptide (Left). Quantitation (mean+/−sd) of nuclear pSmad2 or pSmad3 from 2 experiments (Right). (C) Immunofluorescence of nuclear Smad3 was determined as in FIG. 1C from 30 cells in each of two experiments in the absence (−) or presence (+) of 5 ng/mL TGFβ and the indicated TAT-SNX9(SH3) fusion polypeptide (1.5 μM). […]
FIGS. 4A-E. A point mutant of TAT-SH3-2 abolishes the inhibitory action on Smad3 responses. […] (E) AKR-2B cells were transiently transfected with a BMP (BRE), EGF (SRE), or PDGF (MMP-1) reporter construct and luciferase activity determined following 12 hour incubation in the absence (−) or presence (+) of the indicated ligand (10 ng/mL BMP4, EGF, or PDGF), inhibitor (10 μM Dorsomophin; 3 μM Lapatinib; 2 μM CP868) or TAT-SNX9(SH3) fusion polypeptide (1.5 μM). […]

[2] = system: Smad3 targets (PAI-1, CTGF, Smad7); assay: RT-PCR/qPCR/Western of Smad3 responsive genes in AKR-2B cells; format: cell-based; settings: 5 ng/mL TGFβ, 24 hours
Procedure: FIGS. 2A-C. TAT-SH3 inhibits Smad3-dependent responses. (A) AKR-2B cells were transiently transfected with a Smad3 (3TP), Smad2 (ARE), or Smad1/5/8 (BRE) reporter construct, and luciferase activity determined following 12 hours incubation in the absence (−) or presence (+) of the indicated ligand (5 ng/mL TGFβ; 10 ng/mL BMP4) or TAT-SNX9(SH3) fusion polypeptide (1.5 μM). Data represent the mean+/−SEM of three experiments. (B) RT-PCR analysis of Smad3 (PAI-1 and CTGF) and Smad2 (MMP2) responsive gene following 24 hour treatment of AKR-2B cells with the indicated concentration of TAT-SNX9(SH3) fusion polypeptide or 5 ng/mL TGFβ. Loading was verified by GAPDH expression. (C) Soft agar colony formation was performed following seven days growth in the presence (+) or absence (−) of TGFβ (10 ng/mL) or the indicated TAT-SNX9(SH3) fusion polypeptide (1.5 μM). […]
as §1, with “(A) Cartoon depicting constructs used for His pull down assays. AKR-2B lysates were incubated with the indicated TAT-SNX9(SH3) fusion polypeptide and immunoblotted for bound pSmad3 or total TAT-SNX9(SH3) fusion polypeptide (His).” left out

T1 sequence (Q8BUN5 whole entry, the tested form may be a part): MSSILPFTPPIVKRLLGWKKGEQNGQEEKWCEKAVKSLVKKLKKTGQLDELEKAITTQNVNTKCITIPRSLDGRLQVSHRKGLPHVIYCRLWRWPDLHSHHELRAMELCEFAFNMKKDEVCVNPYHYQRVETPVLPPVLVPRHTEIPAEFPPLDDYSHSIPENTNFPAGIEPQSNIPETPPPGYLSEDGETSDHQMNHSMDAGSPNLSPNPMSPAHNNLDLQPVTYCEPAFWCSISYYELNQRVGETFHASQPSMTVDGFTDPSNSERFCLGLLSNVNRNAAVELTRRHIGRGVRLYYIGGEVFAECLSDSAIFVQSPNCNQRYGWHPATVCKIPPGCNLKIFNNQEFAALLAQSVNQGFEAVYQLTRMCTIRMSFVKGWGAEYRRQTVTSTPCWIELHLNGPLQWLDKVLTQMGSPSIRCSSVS

Substance | pSmad3 binding [1] | TGFβ induction of Smad3 targets / Smad3-dependent transcriptional responses [2]
TAT-SH3-2: TAT-SNX9(SH3) fusion polypeptide having SNX9 amino acids 21-51 (31 mer) (TVNEGEIITITNPDVGGGWLEGRNIKGERGL; left off: small tags and cut ends) | bound pSmad3 to a similar degree as a TAT-SNX9(SH3) fusion polypeptide having the full length SH3 domain | prevented Smad3-dependent transcriptional responses; also recorded: prevented TGFβ induction of Smad3 targets such as CTGF, PAI-1, and Smad7 to a similar degree as inhibition of TβRI
TAT-SH3-2M: TAT-SH3-2 with G to V point mutations at amino acids 36-38; inactive TAT-SNX9 peptide unable to bind pSmad3 (TVNEGEIITITNPDVVVVWLEGRNIKGERGL; left off: small tags and cut ends) | unable to bind pSmad3 | abolished the inhibitory effect
